Results: patent publication US8420776B2, “Ube2G2 binding domain in the ubiquitin ligase gp78 and methods of use thereof” (The United States of America, as Represented by the …, priority 2004, dated 2013)

Experiments:
ERAD substrate CD3-δ = test: CD3-δ level in co-transfected cells by immunoblotting; format: cell-based; conditions: co-transfection with CD3-δ; immunoblot
Description: (§1) Transfections of HT1080, NIH 3T3 and HEK 293T cells were carried out ˜24 hr after plating using Polyfect (Qiagen, Valencia, Calif.) and cells harvested after ˜48 hr. J558 cells were transfected by electroporation using Bio-rad GENE pulser II at settings of 250 v, 950uF. Vector without insert was used to equalize total plasmid. In most experiments 0.15 μg of pEGFP-C1 served as an internal control. For experiments not involving immunoprecipitation, 6×10^5 cells were plated in 6 well plates and cell lysis was with Mammalian Protein Extraction Reagent (Pierce). For immunoprecipitation, 2.4×10^6 cells were seeded in 100 mm dishes and cells were lysed in RIPA buffer (1×PBS, 1% Nonidet P40. 0.5% sodium deoxycholate, 0.1% SDS). Lysis buffers were supplemented with Protease Inhibitor Cocktail (Sigma) and 10 mM iodoacetamide. Supernatants were analyzed after a 10,000×g centrifugation using standard techniques for immunoprecipitation, SDS-PAGE, immunoblotting and ECL. Treatment of cells with MG132 (Sigma) was at 50 μM for eight hr. Cycloheximnide was used at 50 μg/ml. All cells were collected at the end of the six hr chase.
FIG. 7 depicts the stabilization of CD3-δ protein in cells transfected with the G2BD, but not with the G2BD with amino acids 579-584 (of SEQ ID NO:2) mutated. HEK 293T cells were transfected with the ERAD substrate CD3-δ along with the indicated GFP fusions of gp78. The left and right sides are two separate experiments.
To test this, GFP fusions of either a minimal E2 binding domain (GFP-574-611) or a more extended region that includes the C-terminus of gp78 (GFP-574-643) were evaluated (FIG. 21A). […] To assess this further, the C-terminal region of gp78 was fused to the eight amino acid Flag tag. […] Mdm2 is a RING finger E3 for both itself and p53 that is neither an ERAD substrate nor known to utilize Ube2G2 as an E2. […] To establish with certainty that the effect observed with expression of the Ube2G2 binding site is a consequence of binding endogenous E2, and not due to other unanticipated effects, cells were co-transfected with increasing amounts of Ube2G2 (FIG. 21C, lanes 3 and 4). […] These findings clearly establish that the isolated E2 binding site has the potential to markedly alter ERAD of CD3-δ. To ensure the effect observed was not peculiar to one substrate, TCR-α was evaluated (FIG. 21D).

gp78 [1] = test: gp78 ubiquitylation in transfected cells (IP anti-gp78, IB anti-ubiquitin); format: cell-based; conditions: 50 μM MG132 eight hours
Description: FIGS. 20A-20E depict the requirement of multiple domains of gp78 to target itself and a heterologous ERAD substrate. (FIG. 20A) Cells were co-transfected with the indicated forms of full length gp78 together with CD3-δ and lysates analyzed by IB. (B) Cells were transfected with wild type and mutant gp78 plasmids as indicated. Samples were treated with 50 μM MG132 for eight hours, lysates IP'ed with anti-gp78 followed by […] with either antiubiquitin (upper) or anti-gp78 (lower). Arrow in upper panel indicates migration of unmodified gp78. (FIGS. 20C and 20D) Cells were co-transfected with HA-CD3-δ and wild type (WT) or mutant forms of gp78. Cells were treated with cycloheximide (CHX) as indicated. (FIG. 20E) Graphic representation of CD3-δ levels from FIGS. 20C and 20D (fall length gp78 transfections only), Cue-m1, 2 is the average of data shown in FIGS. 20C and 20D.
as §1, with “Lysis buffers were supplemented with Protease Inhibitor Cocktail (Sigma) and 10 mM iodoacetamide.” left out, “Treatment of cells with MG132 (Sigma) was at 50 μM for eight hr. Cycloheximnide was used at 50 μg/ml. All cells were collected at the end of the six hr chase.” left out
(§2) gp78 is degraded in a proteasome-dependent manner, and deletion of the entire cytoplasmic domain results in its stabilization. […] To determine the significance of the RING finger, Cue domain and Ube2G2 binding site on gp78 stability, mutations of each were evaluated within full-length gp78. […]

gp78 [2] = test: gp78 level in transfected cells by immunoblotting; format: cell-based; conditions: full-length gp78 forms; immunoblot
Description: as §1, with “All cells were collected at the end of the six hr chase.” left out
as §2

Myc-Ube2G2 = target: T1, Myc-Ube2G2 (Mus musculus, UniProt P60605); test: Co-immunoprecipitation with co-expressed Myc-Ube2G2 in cells; format: cell-based; conditions: anti-Myc IP, anti-gp78 IB; MG132 8 hr
T1 construct: expressed in transfected cells; host or cells: HEK 293T
T1 sequence (P60605 1-165): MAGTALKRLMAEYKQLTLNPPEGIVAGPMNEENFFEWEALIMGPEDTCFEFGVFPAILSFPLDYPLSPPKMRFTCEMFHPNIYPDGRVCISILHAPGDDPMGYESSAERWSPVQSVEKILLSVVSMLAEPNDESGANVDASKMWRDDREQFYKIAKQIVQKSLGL
Description: as §1
FIG. 5 depicts the results of immunoprecipitation of Ube2G2 (MmUbc7) from HEK 293T cells co-transfected with a plasmid encoding myc-tagged MmUbc7/Ube2G2 together with s plasmid encoding various forms of gp78. HEK 293T cells were transfected with a plasmid encoding myc-tagged MmUbc7/Ube2G2 together with plasmids encoding various forms of gp78. After 48 hours, cells were harvested and co-immuntoprecipitated with an anti-Myc tage. Anti-gp78 was used for detection. “R2M” indicates a mutation of two crucial residues in the RING finger. “T” indicates C terminal truncations at the indicated amino acids. ΔB is the mutation indicated above in FIG. 4 in the context of the full length gp78 and “Cue12M” indicates mutations in the Cue domain of gp78.
To confirm the significance of the Ube2G2 binding site in cells, a variety of mutations and truncations of full-length gp78 were tested for binding of co-expressed Myc-Ube2G2 (FIG. 19A). Cells were treated with the proteasome inhibitor MG132 in an attempt to equalize levels of the various forms of gp78.

UbcH5B = target: T2, UbcH5B (Homo sapiens, UniProt P62837); test: GST pull-down binding of in vitro translated UbcH5B; conditions: GST fusion pull-down
T2 construct: made in house; host or cells: in vitro translation in wheat germ
Description: GST fusions were purified from E. Coli. Binding was carried out using equi-molar amount of fusion proteins measured by Commassie blue staining. Generally, 20 picomoles/sample were used. In vitro translated E2 was generated by coupled transcription and translation using 35S methionine in either wheat germ or rabbit reticulocyte lysate. Binding assays using in vitro translated E2 was carried out by incubating GST protein pre-bound to Glutathione-sepharose 4B with […] of ^35S-methionine labeled E2 in binding buffer (25 mM Tris-HCl, pH 7.4; 50 mM NaCl, 5 mM DTT; and 0.5% NP-40) overnight at 4° C. Beads were washed with binding buffer and resolved by SDS-PAGE under reducing conditions. Analysis was by Storm PhosphoImager (Applied Biosystems, Foster City, Calif.). Direct binding assays used wild type His6-MmUbc7 (His6-Ube2G2) and Glutathione-sepharose bound GST fusions. Beadbound GST protein was incubated with 100 ng purified His6-MmUbc7 in binding buffer and washed and eluted as above. After transfer to Hybond-P (Amersham Biosciences) binding was assessed with anti-His6 followed by Enhanced Chemiluminescence ECL; Pierce). Ubiquitin binding studies were performed with binding and washing as above using 1 μg K48 tetra-ubiquitin produced as described (Piotrowski et al., 1997). Detection was by anti-ubiquitin immunoblotting. […]

T2 sequence (P62837 whole entry, the tested form may be a part): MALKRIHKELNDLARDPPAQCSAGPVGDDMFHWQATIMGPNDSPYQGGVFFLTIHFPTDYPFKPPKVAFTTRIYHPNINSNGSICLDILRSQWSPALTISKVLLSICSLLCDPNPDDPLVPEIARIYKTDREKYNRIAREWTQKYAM

Row | Molecule | effect on CD3-δ level (stabilization) (ERAD substrate CD3-δ) | gp78 ubiquitylation (ubiquitin immunoreactivity) (gp78 [1]) | gp78 level compared to wild type (gp78 [2]) | E2 association of full-length gp78 forms with co-expressed Myc-Ube2G2 (Myc-Ube2G2) | binding to in vitro translated UbcH5B (UbcH5B)
1 | gp78Cue-m1, 2: full-length gp78 with mutations in the Cue domain (label Cue-m1, 2 in b279) (protein) MPLLFLERFPWPSLRTYTGLSGLALLGTIISAYRALSQPEAGPGEPDQLTASLQPEPPAPARPSAGGPRARDVAQYLLSDSLFVWVLVNTACCVLMLVAKLIQCIVFGPLRVSERQHLKDKFWNFIFYKFIFIFGVLNVQTVEEVVMWCLWFAGLVFLHLMVQLCKDRFEYLSFSPTTPMSSHGRVLSLLVAMLLSCCGLAAVCSITGYTHGMHTLAFMAAESLLVTVRTAHVILRYVIHLWDLNHEGTWEGKGTYVYYTDFVMELTLLSLDLMHHIHMLLFGNIWLSMASLVIFMQLRYLFHEVQRRIRRHKNYLRVVGNMEARFAVATPEELAVNNDDCAICWDSMQAARKLPCGHLFHNSCLRSWLEQDTSCPTCRMSLNIADNNRVREEHQGENLDENLVPVAAAEGRPRLNQHNHFFHFDGSRIASWLPSFSVEVMHTTNILGITQASNSQLNAMAHQIQEGGRQVPYHLRLQVDQLTRSVEITTDNILEGRIQVPFPTQRSDSIRPALNSPVERPSSDQEEGETSAQTERVPLDLSPRLEETLDFGEVEVEPSEVEDFEARGSRFSKSADERQRMLVQRKDELLQQARKRFLNKSSEDDAASESFLPLEGASSDPVTLRRRMLAAAAERRLQKQQTS | marked increase in CD3-δ | dramatic decrease in ubiquitin immunoreactivity | increased gp78 |  | 
2 | gp78E2-m2: full-length gp78 with residues 579-584 mutated (label E2-m2 in b279) (protein) MPLLFLERFPWPSLRTYTGLSGLALLGTIISAYRALSQPEAGPGEPDQLTASLQPEPPAPARPSAGGPRARDVAQYLLSDSLFVWVLVNTACCVLMLVAKLIQCIVFGPLRVSERQHLKDKFWNFIFYKFIFIFGVLNVQTVEEVVMWCLWFAGLVFLHLMVQLCKDRFEYLSFSPTTPMSSHGRVLSLLVAMLLSCCGLAAVCSITGYTHGMHTLAFMAAESLLVTVRTAHVILRYVIHLWDLNHEGTWEGKGTYVYYTDFVMELTLLSLDLMHHIHMLLFGNIWLSMASLVIFMQLRYLFHEVQRRIRRHKNYLRVVGNMEARFAVATPEELAVNNDDCAICWDSMQAARKLPCGHLFHNSCLRSWLEQDTSCPTCRMSLNIADNNRVREEHQGENLDENLVPVAAAEGRPRLNQHNHFFHFDGSRIASWLPSFSVEVMHTTNILGITQASNSQLNAMAHQIQEMFPQVPYHLVLQDLQLTRSVEITTDNILEGRIQVPFPTQRSDSIRPALNSPVERPSSDQEEGETSAQTERVPLDLSPRLEETLDFGEVEVEPSEVEDFEARGSRFSKSADERAAAGGGRKDELLQQARKRFLNKSSEDDAASESFLPLEGASSDPVTLRRRMLAAAAERRLQKQQTS | neither significantly stabilized CD3-δ nor enhanced its loss | dramatic decrease in ubiquitin immunoreactivity | increased gp78 | loss of E2 binding | 
3 | AO7: GST fusion of the RING finger and surrounding regions of the unrelated E3 enzyme AO7 (protein, left off: a dimerising Fc or GST) QIHKISQALGHVAKEGLGTAMLYELIEKGKEILTDNNIPHGQCVICLYGFQEKEAFTKTPCYHYFHCHCLARYIQHMEQELTTQEQEQERQHVVTKQKAVGVQCPVCREPLVYDLASLKAAPEPQQPMELYQPSAESLRQQEELKLLYQRQQEKGGIIDLEAERNRYF |  |  |  |  | did bind
